Assay results published in paper PMC9602519, “A Novel Cryptic Clostridial Peptide That Kills Bacteria by a Cell Membrane Permeabilization Mechanism” (Microbiology Spectrum, 2022).

Target: the molecule itself
Assay: AUC; sedimentation velocity, 50,000 rpm, 20°C, absorbance at 230 nm; 10 mM sodium bicarbonate, 5 mM sodium phosphate (pH 6.8), 100 mM NaCl; with 20 mM DPC detergent (membrane mimic); c(s) distribution in SEDFIT

B1: Intestinalin (P30) (peptide)
peptide: KNLLRRIRRKLRNKFSRSDVIKTPKIVEVN
notes: N-terminal region of the LysC autolysin of Clostridium intestinale URNW
stoichiometry N: 3
